Reference: US20250295799A1, “ANTIBODY-DRUG CONJUGATES TARGETING GLYPICAN-3 AND METHODS OF USE” (Zymeworks BC Inc., priority 2022, published 2025)

Key:
[1] = target: human glypican-3 (GPC3) (human) (UniProt P51654); test: flow cytometry on CHO-S cells transfected with human GPC3
[2] = target: cynomolgus monkey glypican-3 (GPC3) (cynomolgus monkey); test: flow cytometry on CHO-S cells transfected with cynomolgus GPC3
[3] = target: human glypican-3 (GPC3) (human) (UniProt P51654); test: cell-based or functional assay
[4] = target: human glypican-3 (GPC3) (human) (UniProt P51654); test: flow cytometry on JHH-7 cells (GPC3-high)
[5] = target: human glypican-3 (GPC3) (human) (UniProt P51654); test: flow cytometry on JHH-5 cells (GPC3-mid)
[6] = target: human glypican-3 (GPC3) (human) (UniProt P51654); test: flow cytometry on JHH-7 cells; v21995 in PBS (not incubated in plasma), day 0
[7] = target: human GPC3 on cells (human) (UniProt P51654); test: flow cytometry, JHH-7 cells; negative control

Row | Substance | Kd [1] [nM] | Kd [2] [nM] | JHH-5 Internalization (MFI) [3] [MFI] | JHH-5 Internalization (MFI), Day 0 (in PBS) [3] [MFI] | JHH-7 Internalization (MFI) [3] [MFI] | JHH-7 Internalization (MFI), Day 0 (in PBS) [3] [MFI] | Kd [4] [nM] | Kd [5] [nM] | Bmax (MFI) [6] [MFI] | Kd [6] [nM] | Kd [7] [nM]
1 | palivizumab (anti-RSV antibody), v21995 | > 150 | > 150 | 399 | 506 | 265 | 4 | > 47 | > 150 | 309 | 37.7 | –
2 | v22277 (palivizumab) (antibody) | – | – | – | – | – | – | – | – | – | – | > 60
